Source: publication PMC5428264, “Dentin sialoprotein facilitates dental mesenchymal cell differentiation and dentin formation” (Scientific Reports, 2017)

What was measured:
[1] = molecular target: T1, GST-DSPf5 fusion protein (COOH-terminal DSP domain aa 363–458) (mouse, UniProt P97399 363-458); experiment: co-IP; in vitro immunoprecipitation: 10 μg of purified GST-DSP and GST-Ocln fusion proteins mixed, precipitated with DSP or Ocln antibody and protein G Sepharose, blotted with the other antibody; conditions: both partners purified
T1 construct: also called DSP peptide; source: E. coli BL21, purified (GSTrap 4B)
T1 sequence (looked up): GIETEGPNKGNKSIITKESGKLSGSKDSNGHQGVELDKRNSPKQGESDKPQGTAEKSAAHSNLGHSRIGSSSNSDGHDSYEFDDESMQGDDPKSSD

[2] = molecular target: T2, biotinylated DSPf5 (recombinant DSP aa 363–458) (mouse, UniProt P97399 363-458, biotin (Sulfo-NHS-LC-biotin)); experiment: ELISA; substrate binding assay: OclnL2 coated at 1 μg per well (BSA as control), biotinylated DSPf5 at 0–18 fold molar excess in PBS with 1% BSA, room temperature, different time periods; AP-conjugated streptavidin, PNPP, 405 nm; conditions: both partners purified
T2 construct: The same recombinant protein as m6, labelled with biotin; source: E. coli BL21, purified (GSTrap 4B), then reacted with Sulfo-NHS-LC-biotin
T2 sequence (looked up): T1 sequence (looked up)

B1: GST-OclnL2 fusion protein (occludin extracellular loop 2, aa 194–241) (domain or fragment, mouse, UniProt Q61146 194-241, looked up)
chain: GVNPTAQASGSMYGSQIYMICNQFYTPGGTGLYVDQYLYHYCVVDPQE
notes: occludin, mouse, extracellular loop 2, residues 194-241 counted from the translation start site; Cloned into pGEX-6P3 from pBluescript SK-Ocln; also called Ocln loop2; extracellular loop 2 of Ocln; source: E. coli BL21, purified (GSTrap 4B)
binding result [1]: binds
binding result [2]: binds
